The source of these data is a protein production outcome set (Wang et al. 2014).

The data set can be described thus: label from the status in PepcDB records.
Take “MFKKEIILGILCLFAACHSNDEIIEEQESPKNEQQEPKARVDIILSHEEQAMSESTNDFAFQLFKQVCVSENRKTNIFISPFSVSLCLSMSANGANGNTLTEIKKVLGFSSSSMDEVNTYNQKLMSSLLNIDNTTQIGIANSVWINQGFVVKNTFIDINKLKYNAWVESLDFSSASAIATINAWCARNTENRLVDIMDEISPEARLILINALYFKGKWTNPFSKEVTKNDFFTNIDGEQVKVDMMCQEESFRCMNNEKFAIAEFPYGNEAFSMVVVLPVENSSLEESLLWLSNDAWKQCETQMSYQKLQVKMPKFSFKYQKPLNSDMSVLGMKDAFILGLADFRNISASENLYLSSLEQFTYLEVNEEGTESAAITTEVPATSTGDDKDIIHFFMDRPFIFMIKEKSTGLILFMGQVTKL”: the protein production result is “failed”.
Consider “MLLRLPLLDLTPLPAPFYELAKDVEQSLITDPEKAREVAAKLHAATDTAQGLHRAYAELLLARTLLSTRQWQAALESFEKARKSLLALERAALVAHAVLGRVYILLGTGQYAEASAEAAELEAQLANGPVQAMEIRALALNAIAYAEYAQGRPVQAINHLKEALKLREQLSPIIIAACLCNLGISNIEQGNYREAIYWLMEAYRAHPDSNEDRQLELATLTNLAYAHYLAGDLSLATEITQKAYAAAGEWQSYKVRAYSALNLGTYNTELQQTGRARSYLQEALVLSQTQPELTADAVLRASILDSLGTLEHQDGNSESALELYTRAREIAQRDELPAVEALTQLNIGRMLGQLGRPEARAELERALELAVAACLFKEQFEAHTALAELTAAAADWRSAYRHQQELTRLKLHLLEGEHERQRKELRAELDLEQMRREGELSRERLKIEVAARERAEAETLERTQQLAQAQREVVLCLALAAEYRDSITGEHIKRVGTFAAHIALALGWSQADAELLMLASRLHDVGKIGIPDSILLKPGKLTEVEYVQMQAHTLIGSQILGQGNSALLKLAQTIALSHHERWNGEGYPYGLHGEAIPLAGRIVAVADVYDALIQRRPYKAAWTPEQAAAELSAQAGRHFDPALVEVALRILNDVHYSVDELKELGPPTVGPAAASLERELALRTQELQEARKNAGELLQLALSDSLTGLHNRRALELDLEQRIYPGAVDFYMTSLDLDSLKEINDSQGHQYGDQLLRQFALCLRQSCAAGKTYRIGGDEFAVLWNLDVTEQDIVQVLRRLPQNLRVTGQPGISFSYGSACYNRDAATAGDLLRVSDARMYRMKVGRRGEETDSIWFKEDH”, for which the protein production result is “failed”.
The entry for “MYKVGIVLFDDFTDVDFFLMNDLLGRTSDSWTVRILGTKPEHHSQLGMTVKTDGHVSEVKEQDVVLITSGYRGIPAALQDENFMSALKLDPSRQLIGSICAGSFVLHELGLLKGKKLTTNPDAKAVLQGMGGDVQDLPLVIEGNIATAGGCLSLLYLVGWLAERLFDSVKRKQIQNQLIPAGQMEIFETLISETIQSAESAYEYRSACESDAESLVV” is “not failed”.
The entry for “MRYRDNLKRSLKQAALAAGLLMTMSCAVRATPQDDLRSAVEYNRPALVQKLVAQGVDPNLDTRDGTPLLVDALKDKNIDVAEALIRAKGLDFERANAAGENALMMAAYQGLLPLVRLMVETYDVEVNKTGWTALHYAATNGHDAIVQYLLDHGAYIDAESPNGTTPLMMATMGGQITTVKLLLDEGADMNLRNQQKMDVIDFAKRYHQDEIAAGLESRRRKLAEPGAQPVPARQPAAPAGMRPAAPVVPDVPAPMPAPRAPESAIDRDATSGLPGSLSDQKTVPPPDLRGN” is “failed”; for “MSNDSPQLPDFLLAGRYRLHRLIGAGGMGRVWEGVDELLDRPVAIKELTINEHLPPQEIEILRARMLREARSAAQLSHPSIITVFDVVEKDGFPWIVMELVHGKSLSEIIKQEGAISPERAANLGLQVAAALSVAHQRGIVHRDIKPGNVLVARGDRAVLTDFGIAYLEGSSRLTRTGSLLGSPSYLAPEQARGEPASPAADMWALGTTLYAALHGAPPFQRATPMATLTAVVVDEVPPPVKAGPLRPLLEQLLNKDPQKRPTVHEVVEELQRVVMSFPPQSSSASSTGTHTLQEEASPAPAEVSVAKPAADTSALPLSSPAEPGKRNSTLATVGLVALALCVVVAVITAVVLFVPAGGNSRADGEQPAAETSQSSEETGQAEEPEPTTSAEAAEQGVGEDDEDSEEEAEDDDYSGPPLVRHEDPTGFSLDVPEGWSVDRRGSSVFFRNPEGGYLQVDQTDSPNPDAKKDWEAQERGAAGRFSNYSLIDIRYSDHPSMERYVTASDWEFTFTINGQRMHAVNRGFHTEKKGYALFLVYPADGWEETGAPLLDRMSESFEPAA” it is “failed”; for “MIMFNYQQTSQSCVKCGKCIPSCTIYNIHPDEVTSPRGFIDLLGAYQRGELELDKNAKDIFEKCFLCTNCTYVCPNLLPTDQVIENVRAEIAQKFGIAWFKRAYFFLLRNRWLEHHHHHH” it is “failed”.
